These are literature values, as cited in PMC4435181.

This data set has as its target HER2 ECD (Homo sapiens) (UniProt P04626). The data set is described as follows: ELISA.

pKd: −log10 of the molar value.

trastuzumab: the negative logarithm of the Kd (pKd) (in general, the Kd on a negative log10 scale, so that one unit is a factor of ten) is 10.00.
